The results in this text go back to publication PMC7266993, “STAG1 vulnerabilities for exploiting cohesin synthetic lethality in STAG2-deficient cancers” (Life Science Alliance, 2020).

In test [1] the target is T1, Biotinylated RAD21 peptide, residues 356-395 (Biotin-Ttds-RAD21 356-395) (human, N-terminal biotin followed by a trioxatridecan–succinamic acid spacer (Biotin-Ttds-)).
T1 construct: Immobilised on a streptavidin (SA) sensor chip through the biotin; source: synthetic peptide, purchased
T1 peptide: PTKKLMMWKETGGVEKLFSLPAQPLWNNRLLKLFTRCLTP
Briefly: SPR; Biacore S200, SA chip, ~400 RU biotinylated RAD21 356-395 immobilised; STAG1 as analyte, single cycle kinetics 7.5-1,000 nM, 120 s injections; 10 mM Hepes pH 7.5, 150 mM NaCl, 0.5 mM TCEP; 1:1 binding model. The conditions noted are these: both partners purified. In general terms: Surface plasmon resonance follows binding to a sensor surface in real time, without labels.

The target in test [2] is T1, Biotinylated RAD21 peptide, residues …. Briefly: SPR; Biacore S200, SA chip, biotinylated RAD21 356-395 immobilised; STAG1 as analyte, equilibrium analysis (650 s association, 1,200 s dissociation), dose-response fit; 10 mM Hepes pH 7.5, 150 mM NaCl, 0.5 mM TCEP; apparent. The conditions noted are these: both partners purified.

B1: STAG1 central region, wild type, as used in surface plasmon resonance (residues 415-915 as printed in the results) (domain or fragment)
chain: NVYHLVYSAHRPVAVAAGEFLHKKLFSRHDPQAEEALAKRRGRNSPNGNLIRMLVLFFLESELHEHAAYLVDSLWESSQELLKDWECMTELLLEEPVQGEEAMSDRQESALIELMVCTIRQAAEAHPPVGRGTGKRVLTAKERKTQIDDRNKLTEHFIITLPMLLSKYSADAEKVANLLQIPQYFDLEIYSTGRMEKHLDALLKQIKFVVEKHVESDVLEACSKTYSILCSEEYTIQNRVDIARSQLIDEFVDRFNHSVEDLLQEGEEADDDDIYNVLSTLKRLTSFHNAHDLTKWDLFGNCYRLLKTGIEHGAMPEQIVVQALQCSHYSILWQLVKITDGSPSKEDLLVLRKTVKSFLAVCQQCLSNVNTPVKEQAFMLLCDLLMIFSHQLMTGGREGLQPLVFNPDTGLQSELLSFVMDHVFIDQDEENQSMEGDEEDEANKIEALHKRRNLLAAFSKLIIYDIVDMHAAADIFKHYMKYYNDYGDIIKETLSKTRQID
In test [1], B1 displayed a Kd of 0.127 µM, a koff of 0.00709 s⁻¹ and an on-rate constant (kon) of 55900 M⁻¹ s⁻¹. Further, the Kd in test [2] amounted to 0.148 ± 0.022 µM.

Usually koff stands for the first-order rate constant of dissociation. The low end stands for a long-lived complex, the high end for a short-lived complex. Usually kon stands for the second-order rate constant of association. Lower therefore signals slow association.
